According to paper PMC4760774:

Molecular target: Dengue virus serotype 3 nonstructural protein 5 with a six-residue deletion in the priming loop (DENV3 NS5-Δ6) (dengue virus serotype 3 (DENV3))
Assay: crystal structure

Dengue virus serotype 3 nonstructural protein 5 with a six-residue deletion in the priming loop (DENV3 NS5-Δ6) (enzyme)
stoichiometry N: 2
